From PMC8763006

Molecular target: glutathione S-transferase Pi 1 (GSTP1) (human (endogenous in 97H and Huh7)), P09211
Assay: native gel or EMSA; total protein of 97H-PCSK9 and 97H-mock cells in nondenaturing, nonreducing buffer without boiling, PAGE gel without SDS; Western blot with anti-GSTP1
Settings: remark: other sources report otherwise

B1: glutathione S-transferase Pi 1 (GSTP1), P09211 1-210 (natural protein)
chain: MPPYTVVYFPVRGRCAALRMLLADQGQSWKEEVVTVETWQEGSLKASCLYGQLPKFQDGDLTLYQSNTILRHLGRTLGLYGKDQQEAALVDMVNDGVEDLRCKYISLIYTNYEAGKDDYVKALPGQLKPFETLLSQNQGGKTFIVGDQISFADYNLLDLLLIHEVLAPGCLDAFPLLSAYVGRLSARPKLKAFLASPEYVNLPINGNGKQ
In the case of B1, the stoichiometry N is reported as 2.
